Assays:
[1] = target: T1, Escherichia coli σ^70 (Escherichia coli, UniProt P00579 1-613); assay: cryo-EM structure; σ appropriation complex assembled from σ^70, AsiA, RNAP core enzyme, MotA and a P_(uvsX) DNA scaffold, purified on Superose 6 in 10 mM HEPES pH 7.5, 50 mM KCl; 8 mM CHAPSO added; 3.79 Å; details: both partners purified
T1 construct: RNA polymerase sigma factor σ^70 (RpoD) of Escherichia coli; holds σR2, σR3, σR3.2 and σR4 (helices S1-S5); also called principle σ factor

[2] = target: T2, AsiA (bacteriophage T4, UniProt P32267 1-90); assay: fluorescence polarization; comparable affinity to the promoter scaffold; KD only in figure; FP: 10 mM HEPES pH 7.5, 50 mM KCl, 25°C, 0.1 μM DNA, 0-100 μM AsiA; EMSA: 7 mM Tris-HCl and 50 mM Tris-Ac pH 7.9, 0.19 M KGlu, 5 mM MgAc2, 50 mM K-phosphate pH; details: protein: recombinant; tags: N-His6; label: 5' 6-FAM
T2 sequence: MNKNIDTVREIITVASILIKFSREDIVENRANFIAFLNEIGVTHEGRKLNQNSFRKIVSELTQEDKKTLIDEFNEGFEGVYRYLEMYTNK

T1 sequence (P00579 whole entry): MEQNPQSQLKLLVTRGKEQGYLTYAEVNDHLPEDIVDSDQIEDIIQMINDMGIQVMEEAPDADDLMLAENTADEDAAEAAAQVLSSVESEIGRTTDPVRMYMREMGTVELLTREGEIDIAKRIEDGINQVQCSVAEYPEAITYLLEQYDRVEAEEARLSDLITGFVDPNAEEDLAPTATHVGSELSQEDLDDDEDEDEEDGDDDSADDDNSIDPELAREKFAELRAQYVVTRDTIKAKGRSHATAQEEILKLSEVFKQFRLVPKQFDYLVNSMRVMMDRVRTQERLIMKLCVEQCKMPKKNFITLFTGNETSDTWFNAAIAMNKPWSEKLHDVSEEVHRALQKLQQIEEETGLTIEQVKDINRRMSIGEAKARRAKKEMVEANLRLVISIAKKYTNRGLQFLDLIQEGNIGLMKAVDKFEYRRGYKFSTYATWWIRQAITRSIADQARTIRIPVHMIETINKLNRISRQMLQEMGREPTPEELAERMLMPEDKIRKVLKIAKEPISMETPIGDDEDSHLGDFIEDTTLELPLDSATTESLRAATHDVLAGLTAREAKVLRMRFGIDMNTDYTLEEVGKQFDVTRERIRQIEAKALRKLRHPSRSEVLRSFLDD

B1: AsiA (natural protein, bacteriophage T4)
chain: T2 sequence
notes: AsiA, anti-sigma 70 protein of bacteriophage T4; synthetic gene in pET28a; A6 is the C-terminal helix; also called AisA; N-hexahistidine-tagged AsiA; source: E. coli BL21(DE3), plasmid pET28a-NH-AsiA, purified (Ni-NTA, Mono Q)
B1: binds [1].

B2: irrelevant DNA scaffold (FP) (dsDNA)
DNA 1: GCAAATGAGCAACA
DNA 2: TGTTGCTCATTTGC
B2: binds [2].

B3: MotA (natural protein, bacteriophage T4, UniProt P22915 1-211, looked up)
chain: MSKVTYIIKASNDVLNEKTATILITIAKKDFITAAEVREVHPDLGNAVVNSNIGVLIKKGLVEKSGDGLIITGEAQDIISNAATLYAQENAPELLKKRATRKAREITSDMEEDKDLMLKLLDKNGFVLKKVEIYRSNYLAILEKRTNGIRNFEINNNGNMRIFGYKMMEHHIQKFTDIGMSCKIAKNGNVYLDIKRSAENIEAVITVASEL
notes: synthetic gene in pET21a; source: E. coli BL21(DE3), plasmid pET21a-MotA, purified (HiTrap Heparin, Mono S)
B3: binds [1].

Source: PMC6755090
